Laboratory results reported in patent US20180313827A1.

Key:
[1] = target: Ddx4_N1_1 (disordered N-terminus of Ddx4 protein, forming Ddx4N1 membraneless organelles / proteinaceous phase) (Homo sapiens (Human)) (UniProt Q9NQI0); experiment: confocal fluorescence microscopy, partitioning inside vs outside Ddx4N1 organelles in vitro; 5 µM, 150 mM NaCl
[2] = target: Ddx4_N1_1 (disordered N-terminus of Ddx4 protein, forming Ddx4N1 membraneless organelles / proteinaceous phase) (Homo sapiens (Human)) (UniProt Q9NQI0); experiment: confocal fluorescence microscopy, partitioning inside vs outside Ddx4N1 organelles in vitro; 11.8 µM, 175 mM NaCl

UniProt Q9NQI0, sequence (Q9NQI0 other isoform, or with tags, fused parts or gaps limits assumed): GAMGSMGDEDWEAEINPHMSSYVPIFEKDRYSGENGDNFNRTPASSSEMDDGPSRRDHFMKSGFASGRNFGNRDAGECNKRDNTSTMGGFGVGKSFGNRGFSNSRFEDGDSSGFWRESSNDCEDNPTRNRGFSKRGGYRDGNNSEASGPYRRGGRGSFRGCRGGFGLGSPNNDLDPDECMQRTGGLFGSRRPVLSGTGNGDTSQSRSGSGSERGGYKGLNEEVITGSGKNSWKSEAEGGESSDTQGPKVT

Substance | ΔGpart (partition free energy into Ddx4N1 organelles) [1] | ΔGpart (partition free energy into Ddx4N1 organelles) [2]
GFP^-30 (acidic GFP, -30 surface charge) | 1.6 kJmol^-1 | 
aB_GFP (alphaB-crystallin fused to GFP, oligomer) |  | -7.8 kJmol^-1
